For data set [1], the target named is T1, His6-BkaRMtb (Mycobacterium tuberculosis H37Rv, UniProt O06169 1-215).
T1 sequence: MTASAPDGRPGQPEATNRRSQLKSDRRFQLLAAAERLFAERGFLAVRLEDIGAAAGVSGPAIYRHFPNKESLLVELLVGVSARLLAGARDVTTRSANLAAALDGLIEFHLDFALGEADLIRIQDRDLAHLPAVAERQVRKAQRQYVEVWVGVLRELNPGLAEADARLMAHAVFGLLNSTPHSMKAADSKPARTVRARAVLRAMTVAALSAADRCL
Kind of data set: EMSA; 20 mM HEPES pH 7.6, 1 mM EDTA, 10 mM ([…]; temperature not stated. Particulars: protein: recombinant, tags: His6 (pNIC28-Bsa4, GenBank EF198106), chain copies: 2, blunt.

Data set [2] has as its target T1, His6-BkaRMtb. Kind of data set: EMSA; 0.6 uM protein, 0.06 uM DNA; 20 mM HEPES pH 7.6, 1 mM EDTA, 10 mM ([…]; temperature not stated. To be noted: protein: recombinant; tags: His6 (pNIC28-Bsa4, GenBank EF198106); chain copies: 2; blunt.

B1: MSMEG_3414 motif probe (dsDNA)
DNA 1: TCGGTCCAGGTTAGCCAAAACTATTTCAGAA
DNA 2: TTCTGAAATAGTTTTGGCTAACCTGGACCGA
As to B1, the binding result in the data set with His6-BkaRMtb [1] is on record as “no binding”.

B2: Rv0575c motif probe (dsDNA)
DNA 1: ACGCCAATACGTTAGCGCTCACTAACGTATTG
DNA 2: CAATACGTTAGTGAGCGCTAACGTATTGGCGT
As for B2, the binding result with His6-BkaRMtb [1] is reported as “no binding”.

B3: MSMEG_3415 motif probe (dsDNA)
DNA 1: TACTTCTGAAATAGTTTTGGCTAACCTGGAC
DNA 2: GTCCAGGTTAGCCAAAACTATTTCAGAAGTA
Take B3: in the data set with His6-BkaRMtb [1], the binding result is reported as “no binding”.

B4: MSMEG_4524 motif probe (dsDNA)
DNA 1: CAGCAAGTAAATGTAGCCTAACCTAGCTACG
DNA 2: CGTAGCTAGGTTAGGCTACATTTACTTGCTG
As to B4, the binding result with His6-BkaRMtb [1] is “no binding”.

B5: MSMEG_4920 motif probe (dsDNA)
DNA 1: GCTGTGTTAACGATGATTAACCGGCACAGC
DNA 2: GCTGTGCCGGTTAATCATCGTTAACACAGC
On to B5, for which the binding result with His6-BkaRMtb [2] is on record as “binds”.

B6: scoA motif probe (dsDNA)
DNA 1: CTCACCTCAGTTAATGATAATTAACTGAAA
DNA 2: TTTCAGTTAATTATCATTAACTGAGGTGAG
B6: the binding result with His6-BkaRMtb [2] is “binds”.

B7: probe 1 (bkaRMtb/fadD35) (dsDNA)
DNA 1: TCGTGCTACGTTAGTGACGATTAACCGAAG
DNA 2: CTTCGGTTAATCGTCACTAACGTAGCACGA
B7: the binding result with His6-BkaRMtb [1] (label: DIG-11-ddUTP 3' end) was “binds”.

B8: Rv0576 motif probe (dsDNA)
DNA 1: GATCAATACGTTAGTGAGCGCTAACGTATT
DNA 2: AATACGTTAGCGCTCACTAACGTATTGATC
As for B8, the binding result in the data set with His6-BkaRMtb [1] was “no binding”.
